The values below come from patent US20020068696A1 (published 2002).

In one assay the target is T1, HA-TRAF3 (UniProt Q13114 1-568, limits assumed).
T1 construct: not shown: HA tag
T1 sequence (looked up): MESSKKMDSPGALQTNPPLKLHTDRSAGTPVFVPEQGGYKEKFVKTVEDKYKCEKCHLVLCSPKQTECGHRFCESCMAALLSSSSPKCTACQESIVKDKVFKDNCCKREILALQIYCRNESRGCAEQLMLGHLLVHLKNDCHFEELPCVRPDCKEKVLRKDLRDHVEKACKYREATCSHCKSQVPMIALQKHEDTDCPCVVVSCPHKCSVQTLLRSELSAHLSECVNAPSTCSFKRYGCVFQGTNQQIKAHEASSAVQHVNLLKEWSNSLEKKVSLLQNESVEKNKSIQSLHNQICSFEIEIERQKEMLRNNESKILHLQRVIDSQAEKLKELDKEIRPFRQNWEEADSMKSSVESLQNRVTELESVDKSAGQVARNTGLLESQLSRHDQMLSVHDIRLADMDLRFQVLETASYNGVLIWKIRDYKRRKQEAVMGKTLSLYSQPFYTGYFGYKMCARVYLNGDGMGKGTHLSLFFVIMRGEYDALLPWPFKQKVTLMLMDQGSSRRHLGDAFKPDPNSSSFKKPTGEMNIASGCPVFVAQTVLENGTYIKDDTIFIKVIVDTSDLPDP
The assay is described as follows: co-immunoprecipitation from 293T lysates, western blot.

Another assay deals with T2, HA-TRAF2 (UniProt Q12933 1-501, limits assumed).
T2 construct: not shown: HA tag
T2 sequence (looked up): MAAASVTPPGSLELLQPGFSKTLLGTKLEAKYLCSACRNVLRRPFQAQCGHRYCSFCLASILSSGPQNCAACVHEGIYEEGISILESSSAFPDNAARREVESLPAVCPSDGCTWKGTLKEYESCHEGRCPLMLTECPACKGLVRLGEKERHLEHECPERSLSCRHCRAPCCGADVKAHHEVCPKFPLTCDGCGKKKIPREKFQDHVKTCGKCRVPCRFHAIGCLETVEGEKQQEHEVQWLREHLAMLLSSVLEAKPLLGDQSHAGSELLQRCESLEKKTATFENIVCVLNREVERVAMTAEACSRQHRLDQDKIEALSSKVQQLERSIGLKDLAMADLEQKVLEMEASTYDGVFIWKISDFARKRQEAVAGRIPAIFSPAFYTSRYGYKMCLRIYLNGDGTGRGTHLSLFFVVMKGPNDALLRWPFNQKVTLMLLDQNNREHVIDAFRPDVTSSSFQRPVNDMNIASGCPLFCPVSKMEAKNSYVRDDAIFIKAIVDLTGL
Described as above.

B1: deletion construct TRADE 1-218 (Flag-tagged) (receptor)
chain: KVTCESGDCRQQEFRDRSGNCVPCNQCGPGMELSKECGFGYGEDAQCVTCRLHRFKEDWGFQKCKPCLDCAVVNRFQKANCSATSDAICGDCLPGFYRKTKLVGFQDMECVPCGDPPPPYEPHCASKVNLVKIASTASSPRDTALAAVICSALATVLLALLILCVIYCKRQFMEKKPSWSLRSQDIQYNGSEL
notes: Putative 25-residue signal left out; not shown: Flag tag
As to B1, the binding result in the assay with HA-TRAF3 was “no binding”.

B2: Flag-tagged TRADEα (receptor)
chain: KVTCESGDCRQQEFRDRSGNCVPCNQCGPGMELSKECGFGYGEDAQCVTCRLHRFKEDWGFQKCKPCLDCAVVNRFQKANCSATSDAICGDCLPGFYRKTKLVGFQDMECVPCGDPPPPYEPHCASKVNLVKIASTASSPRDTALAAVICSALATVLLALLILCVIYCKRQFMEKKPSWSLRSQDIQYNGSELSCFDRPQLHEYAHRACCQCRRDSVQTCGPVRLLPSMCCEEACSPNPATLGCGVHSAASLQARNAGPAGEMVPTFFGSLTQSICGEFSDAWPLMQNPMGGDNISFCDSYPELTGEDIHSLNPELESSTSLDSNSSQDLVGGAVPVQSHSENFTAATDLSRYNNTLVESASTQDALTMRSQLDQESGAIIHPATQTSLQEA
notes: Full-length isoform expressed in 293T cells and tested in cell lysates by co-immunoprecipitation; Position of the Flag tag unknown (written last here only for want of information); Putative 25-residue signal left out; also called Flag tagged TRADE construct; not shown: Flag tag
On to B2, for which the binding result in the assay with HA-TRAF2 is on record as “no binding”.

B3: Flag-tagged TRADEβ (receptor)
chain: KVTCETGDCRQQEFRDRSGNCVPCNQCGPGMELSKECGFGYGEDAQCVTCRLHRFKEDWGFQKCKPCLDCAVVNRFQKANCSATSDAICGDCLPGFYRKTKLVGFQDMECVPCGDPPPPYEPHCASKVNLVKIASTASSPRDTALAAVICSALATVLLALLILCVIYCKRQFMEKKPSWSLRSQDIQYNGSELSCLDRPQLHEYAHRACCQCRRDSVQTCGPVRLLPSMCCEEACSPNPATLGCGVHSAASLQARNAGPAGEMVPTFFGSLTQSICGEFSDAWPLMQNPMGGDNISFCDSYPELAGEDIHSLNPELESSTSLDSNSSQDLVGGAVPVQSHSENFTAATDLSRYNNTLVESASTQDALTMRSQLDQESGAIIHPATQTSLQVRQRLGSL
notes: Full-length isoform expressed in 293T cells and tested in cell lysates by co-immunoprecipitation; Position of the Flag tag unknown; Putative 25-residue signal left out; also called Flag tagged TRADE construct; not shown: Flag tag
Regarding B3, in the assay with HA-TRAF2, the binding result is given as “no binding”.
